For one assay, the target named is T1, rat CCR8 (rat, UniProt D4ADE0 1-353).
T1 chain: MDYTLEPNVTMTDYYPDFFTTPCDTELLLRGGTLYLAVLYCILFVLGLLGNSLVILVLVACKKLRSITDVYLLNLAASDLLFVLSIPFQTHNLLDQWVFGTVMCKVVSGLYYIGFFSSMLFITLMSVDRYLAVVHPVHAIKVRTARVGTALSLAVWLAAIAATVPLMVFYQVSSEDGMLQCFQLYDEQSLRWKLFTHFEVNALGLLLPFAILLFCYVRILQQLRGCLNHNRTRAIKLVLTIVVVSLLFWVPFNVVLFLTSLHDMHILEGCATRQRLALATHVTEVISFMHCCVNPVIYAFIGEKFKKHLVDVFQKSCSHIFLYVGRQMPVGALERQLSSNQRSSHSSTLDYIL
Description: FACS binding, rat CCR8-293T cells.

The next assay deals with T2, mouse CCR8 (mouse, UniProt P56484 1-353).
T2 chain: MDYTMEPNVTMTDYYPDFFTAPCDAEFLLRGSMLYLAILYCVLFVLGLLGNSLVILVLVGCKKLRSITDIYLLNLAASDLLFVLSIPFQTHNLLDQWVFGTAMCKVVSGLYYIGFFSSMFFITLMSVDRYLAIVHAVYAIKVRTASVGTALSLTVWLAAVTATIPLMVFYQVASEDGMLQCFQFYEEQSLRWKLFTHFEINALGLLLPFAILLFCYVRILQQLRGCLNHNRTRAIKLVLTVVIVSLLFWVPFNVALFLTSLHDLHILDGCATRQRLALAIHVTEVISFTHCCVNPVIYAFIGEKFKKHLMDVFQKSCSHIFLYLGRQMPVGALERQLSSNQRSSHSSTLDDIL
Description: FACS binding, mouse CCR8-CHOK1 cells. For orientation: Flow cytometry measures light scatter and fluorescence of single cells or particles in a stream.

The target in a further assay is T3, cynomolgus CCR8 (cynomolgus, UniProt G7NYJ2 1-355).
T3 chain: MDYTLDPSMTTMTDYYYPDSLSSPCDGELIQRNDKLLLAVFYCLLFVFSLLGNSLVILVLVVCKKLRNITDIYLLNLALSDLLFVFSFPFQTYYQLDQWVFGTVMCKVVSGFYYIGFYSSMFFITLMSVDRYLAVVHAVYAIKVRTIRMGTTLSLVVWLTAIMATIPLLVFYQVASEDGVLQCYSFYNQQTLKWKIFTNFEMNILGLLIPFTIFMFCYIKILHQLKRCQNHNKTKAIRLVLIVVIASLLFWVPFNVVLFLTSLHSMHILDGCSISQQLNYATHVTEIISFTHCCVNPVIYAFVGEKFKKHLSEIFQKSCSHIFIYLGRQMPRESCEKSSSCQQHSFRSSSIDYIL
The assay is described as follows: FACS binding, cyno CCR8-293T cells.

For another assay, the target named is Dog CCR8 (dog). Description: FACS binding, dog CCR8-293T cells.

B1: 3F11hz4 (antibody, V domains shown)
VH: EVQLVESGGGLVQPGGSLKLSCAASGFSFNTYAMNWVRQASGKGLEWVGRIRSKSNYYATYYAASVKGRFTISRDDSKSTLYLQMNSLKTEDTAVYYCVRGRELGDYYAMDYWGQGTLVTVSS
VL: DIVMTQSPLSLPVTPGEPASISCRSSKSLLHSNGNTYLYWFLQKPGQSPQLLIYRMSNLASGVPDRFSGSGSGTDFTLKISRVEAEDVGVYYCMQHLEYPFTFGQGTKLEIK
Usually EC50 stands for the midpoint of the concentration-response curve. A lower EC50 goes with a more potent agent. B1: the EC50 was determined as 3.2 nM with rat CCR8, 0.79 nM in the assay with mouse CCR8, 23.1 nM with cynomolgus CCR8 and 2 nM with Dog CCR8.

These data come from patent US20240352134A1 (published 2024).
